Source: publication PMC6088750

Substrate: O=S(O)(O)=S
Assay: thiosulfate sulfurtransferase initial rates, Michaelis-Menten fit
Format: biochemical, Enterococcus faecalis
Settings: RHD domain activity; minimal TST activity

B1: Ef CDR-RHD / CoA persulfide reductase (CoAPR) (Enterococcus faecalis OG1RF) (protein)
chain: MKIVIIGGVAGGMSAATRLRRLMEDAEIVVMEKGPFVSFANCGLPYYVSGEIAEREQLLVQTPEALKARFNLDVRPHHEVVAIDPIEKVITVKHETEILTEHYDKLILSPGAKPFVPPITGLAEAKNVFSLRNVPDLDQIMTALTPETKRAVVIGAGFIGLEMAENLQKRGLEVTLVEKAPHVLPPLDEEMAAFVKAELSKNNVQVITGQSAVAFEEEGQVIRLEDGQTLASDLTILSVGVQPENTLAVEAGVATGLRGGIVVDEHYQTNQPDIYAVGDAIVVKQQITQEDALISLASPANRQGRQVADVIAGLERKNQGSIGTAIVRVFDLTAASTGLSERAAKAAGLTTAVVHISGKDHAGYYPGATDLQLKLVFHPTTGEIYGAQGIGAKGVDKRIDILATAIKGQLTIFDLPELEFTYAPPFGSAKDPVNMLGYAAMNLVEGLSENVQWYELSNELAKGAVLLDVRNPAERANGQFKNAVSIPLNELRERLEELDKSTEYIVSCHSGLRSYIAERMLKQAGISAKNLDGAFALYRMVKPEELENV
  Km: 1000 ± 600 µM
